Test results: the nanobody polyreactivity screen of Harvey et al. (2022)

Assay: yeast display, Sf9 membrane polyspecificity reagent, FACS + sequencing; frameworks hold sequencing errors
Method in brief: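 Sorting gates, low and high (top ~1%), were placed on anti-HA fluorescence to track expression and on streptavidin fluorescence to track reagent binding. A clone's polyreactivity label is taken from the gate it came out of. The reagent was 10% biotinylated, detergent-solubilized Sf9 membrane, applied for 1 hour at 4 °C to galactose-induced yeast display cells.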

Row | Sequence | polyreactivity (PSR sort gate)
1 | QVQLVESGGGLVQAGGSLRLSCAASGRTFRNNAMGLCRQAPGKEREFVAVISNTGGSTYYADSVKGRFTISRDNAKNTVYLQMNSLKPEDTAVYYCAVRPRYSQYYYWGQGTQVTVSS | high polyreactivity
2 | QVQLVESGGGLVQAGGSLRLSCAASGFTFRIYAMGWYRQAPGKERELVAAITSSGGTTYYADSVKGRFTISRDNAKNTVYLQMNSLKPEDTAVYYCNVAGFKYYSWGTYDYWGQGTQVTVSS | high polyreactivity
3 | QVQLVESGGGLVQAGGSLRLSCAASGFTFRIYAMGWYRQAPGKERELVAAITSVGSTYYADSVKGRFTISRDNAKNTVYLQMNRLKPEDTAVYYCNARATYYRFRYPYGYWGQGTQVTVSS | high polyreactivity
4 | QVQLVESGGGLVQAGGSLRLSCAASGSTFDTYAMGWYRQAPGKERELVAVITTGGSTYYADSVKGRFTISRDNAKNTVNLQMNSLKPEDTAVYYCNAGYSVSRRRKYGYWGQGTQVTVSS | high polyreactivity
5 | QVQLVESAGGLVQAGGSLRLSCAAYGRIFAYNAMGWYRQSPGKERELVAAITWSGDSTYYADSVKGRFTISRDNAKNTVYLQMNSLKPEDTAVYYCATDPLFITSTRWKYDYWGQGTQVTVSS | low polyreactivity
6 | QVQHVESGGGLVQAGGSLRLSCAAYGRTFGYYAMGWNRQAPGKDRELVAAITSGGRTNYADSVKGRFTISRDNAKNTVYLQMISQKPEDTAVYYCAATWNWPLSERKFNYWGQGTQVTVSS | low polyreactivity
7 | QVQLVESVGGLVQAGGSLRLSCAASVRTCRSNAMGWYRKAPGKEMEFVAAISISGTRTNYADSVKGRFTISRDNAKITVYLQMNSLKPEDTAVYYCARRYQIYDFFYHDLYDYWGQGTQVTVSS | low polyreactivity
8 | QVQLVESGGGLVQAGGSLRLSCAASGSTFYGYAMGWYRQAPGKERELVAAISSNGDSTYYADSVKGRFTISRDNAKNSVYLQMNILKPEDTAVYYCATDPEGSTGGGYEFWGQGTQVTVSS | low polyreactivity
9 | QVQLVESGGGLVQAGGSLRLSCAASGFIFWSYAMGWYRQAPGKERELVAAIDLTGGSTYYADSVKGRFTISRDNAKNTVYLQMNSLKPEDTAVYYCNADGDSYAFTNSDSGFDYWGQGTQVTVSS | low polyreactivity
10 | QDQLVESGGGLLQAGGTLRLSCAASGPTFRAKAMGWNRQSPGKERELVAAITWDGGSRYYADSVKGRFTISRDYAKNTVYLQMNSLKPEYTAVYYCNTYPYLWGQGTLVTVSS | low polyreactivity
11 | QVQLVESGGGLVQAGGSLRLSCAASGSTFEANAMGWNRPAPWKERELVAVITWTGGSTYYADSVKGRFTISRDNAKNTVYLQMNSLKPEDTAVYYCAADGVVPGRFFWPAHEYDYWGQGTQVTVSS | low polyreactivity
12 | QVQLVESGGGLVQAGGSLRLSCAASGSIFAYAMGWYRQAHGKERELVAAISGGSTYYADSVKGRFTISRENAKNTVYLQMNSLKPEETAVYYCAADLDDERYYWGQGTQVTVSS | low polyreactivity
13 | QVQLVESGGGIVQAGGSLRLSCAASGFIFHLYGMGWYRQAPGKERELVAAISSGGRTYYADSVKGRFTISRDNAKNTVSLQMNSLKPEDTAVYSCAVYVAYLYSYYYWGQGTQVNVSS | low polyreactivity
14 | QVQLVESGGGLVQAGGSLRLSCAASGSIFYIYAMGWYRQAPGKERELVARISTGGSTHYADSVKGRFTISRDNAKNTVYLQMNSLKPEDTAVYYCDAPYWLWDGEGEYDYWGQGTQVTVSS | low polyreactivity
15 | QVQLVESGGGLVQAGGSLRLSCAASGFISYYYAMGWYRHAPGKEREFVAAITSSGGSTRYADSVKGCFTISRDNAKNTVYLQMNSLKPEDTAVYYCAAGNPYFWPYDYWGQGTQVTVSS | low polyreactivity
16 | QVQIVESVGCLVQARGSLRLSSAASGFILVINAMGWYRQAPGKERELVAAINGGDITNYADSVKGRFTFSRDNAKNNVYLQMNSLKPEDTAVYYCSADGEDSLWTGYDYDYWGLGTQVTVSS | low polyreactivity

Row | Sequence | polyreactivity (PSR sort gate)
17 | QVQLVESGGGLFQAGGSLRLSCAASGFIFRSNAMGGYRHAPGKERELVAAISGGGITYYADSVKGRFTISRDNAKNTVYLQMNSLKPEDTAVYYCAVRWYFKTHWGGYHPYEYCGQGTQVTVSS | high polyreactivity
18 | QVQLVESGGGLVQAGGSLRLSCAASGSTFSGYVMGWYRQAPGKERELVAAISWGGSRTYYADSVKGRFTISRDNAKNTVYLQMNSLKPEDTAVYYCNAYTSYGTFFYWAWPYYYWGQGTQVTVSS | high polyreactivity
19 | QVQLVESGGGLVQAGGSLRLSCAASGITLAGYVMGWYRQAPGKERELVADISSSGDSTYYADSVKGRFTISRDNAKNTVYLQMNSLKPEDTAVYYCADEEIIPLIYKGYPFDYWGQGTQVTVSS | low polyreactivity
20 | QVQLVESGGGLVQAGGSLRLSCAASGFTLGYYTMGWYRQAPGKERELVAAIRSNGGSTYYADSVKGRFTISRDNAKNTVYLQMNSLKPEDTAVYYCAARRWRYVGTRYDYWGQGTQVTVSS | high polyreactivity
21 | QVQLVESGGGLFQAGGSLRISCAASGRIFTKNTMGWYRQPPWKERELFAAIRSRAGSTYYADSVKGRFTISRDNAKNTVYLQMNSLKPEDTAFYYCAVPWFRSVDFDYWGQGTQVTVSS | low polyreactivity
22 | QVQLVESGGGLVQAGGSLRLSCAASGRIFGYNVMGWYIQAPGKERELVAAISWGTGSTYADSMKGRFTISRDNAKKTVYLQMNSLIPVDTAVYYCAADSFIPPYDHWGQGTQVTVSS | low polyreactivity
23 | QVHLVETGGGLVQAGGSLRLSCAASGFIFIWYALGGYRQAPGKERELVAAITSDGGRTYYADSVKGRFTISRDNAKNSVYFQMNSLKPEDTAVYYCYAVSSATKYEYWGQGTQVTVSS | high polyreactivity
24 | QVQLVESGGGLVQAGGSLRLSCAASGRTFYYYAMGWYRPAPGKERELVAAISWSGGRTYYADSVKGRFTISRDNAKNTVYLQMNSLKPEDTAVYYCNAEPPRGYTVSSGGEMDYWGQGTQVTVSS | low polyreactivity
25 | QVQLVESGGGLVQEGGSLRLSCAAYGSTSYRYAMGWYRQAPGKERELVAASSSSGGSTYYADSVKGRFTISRDNEKNTVYLQMNSLKPEDSAVYYCAARFYSGPGGYTMYYWGQGTQVSVSS | high polyreactivity
26 | QVQLEESGGGFVQAGGSLRLSCAPSGTTFKSNAMGWYRQAPGKERELVAAINSGTSTYYADSVKGRFTISRDNAKNTVYLQMNSLKPEDTAVYYCSADGIWGEYYYSELGDYDYWGLGTQVTVSS | low polyreactivity
27 | QVQLVESGGGLVQAGGSLRLSCAASGRTFSRNAMGWYRQAPGKERELVAAITKGGGSTYYADSVKGRFTISRDNAKNTVYLQMNSLKPEDTAVYYCAAYKPSTRRYDYWGQGTQVTVSS | high polyreactivity
28 | QVQLVESGGGLVQAGGSLRLSCAASGFIFSGNAMGWYRQAPGKERELVAAITWSDGSTYYADSVKGRFTISRDNAKNTVYFQINSLKPEDSAVYYCAVGALQITRYDSWGQGTQVTVSS | low polyreactivity
29 | QVQLVESGGGLVQAGGSLRLSCAASGRTFRWYAMGWYRQAPGKERELLASITWSGGSTYYADSVKGRFTISRDNAKNTVYLQMNSLKPEDTAVYYCAAVGRQSNYYVDYDYWGQGTQVTVSS | high polyreactivity
30 | QVQLVESGGGLVQAGGSLRLSCAASGSTLNRNAMGWYRQAPGKERELVAAIRVSGGSTYYADSVKGRFTISRDNAKNTVYLQMNSLKPEDTAVYYCATRYVRARWYGYWGQGTQVTVSS | high polyreactivity
31 | QVQLVESGGGLVQAGGSLRLSCAASGSILSRYAMGWYRQAPGKERELVAAISSRGGSTYYADSVKGRFTISRDNAKNTVYLQMNSLKPEDTAVYYCAADPVGEVRVYARGYSWGQGTQVTVSS | high polyreactivity
